Measured values from publication PMC4895224.

Target: 2-Cysteine peroxiredoxin (BxPrx) of Bursaphelenchus xylophilus (Bursaphelenchus xylophilus (endogenous in the nematode))
Experiment: SDS-PAGE and immunoblot of the inter-molecular dimer; nematodes incubated in 0, 1 and 5 mM H2O2 for 5 min, harvested in 20% TCA, resuspended in SDS-PAGE loading buffer, 12% SDS-PAGE, Western blot with anti-BxPrx serum; 80 ug protein extract per lane

Question: “2-Cysteine peroxiredoxin (BxPrx) of Bursaphelenchus xylophilus (natural protein)” was tested. Which stoichiometry N did it give?
Answer: 2
